Experimental data: patent US11155643B2, “Glucan kinases and methods for processing starch using the same” (University of Kentucky Research Foundation, priority 2017, dated 2021)
Residue numbers refer to the chain shown, from its start. Names and notes keep the numbering of the source. “Also recorded” adds a separate entry of the source. Blank lines part the entries; values can stand above or below the molecule they belong to.

How the values were obtained:
[1] = starch-phosphorylation assay (33P-β-ATP radio-label incorporation into starch); type: biochemical, Arabidopsis; details: for ability to phosphorylate starch (specific activity): FIG. 2, FIG. 3
Protocol: FIG. 8 includes the framework for the C6 versus C3 assay. To label the C6-position, non-phosphorylated starch is incubated in the presence of GWD and ^33P-β-ATP, the protein and label are washed away, and the starch is incubated in the presence of ATP and PWD. The C3 position is labeled in a similar manner, except ^33P-β-ATP is used with PWD. These products are then used as substrates in dephosphorylation assays. A starch-phosphorylation assay is routinely used in the lab to measure the specific activity of protein constructs. This assay has 3 benefits: it utilizes an endogenous substrate, measures the amount of phosphate added to glucose (dikinase activity), and allows comparison of addition to the C3- and C6-positions (site-specific activity) (FIG. 8). Phosphate-free starch was isolated from plants lacking the dikinase GWD, and the sample dialyzed to remove free phosphate. To measure dikinase activity, this phosphate-free starch was used as the substrate. The starch was incubated with the dikinase in question along with ^33P-β-ATP, the ^33P-β-ATP and dikinase was washed out, and radio-label incorporation into the starch was measured.

[2] = target: T1, Cyanidioschyzon merolae Cm-GWD DUF domain (CmGWD DUF, amino acids 345-469; full length Cm-GWD SEQ ID NO: 2) (Cyanidioschyzon merolae, UniProt M1VD00); test: differential scanning fluorimetry (DSF)-based thermal shift assay, oligosaccharide binding
T1 construct: recombinant, purified
T1 sequence (M1VD00 345-469): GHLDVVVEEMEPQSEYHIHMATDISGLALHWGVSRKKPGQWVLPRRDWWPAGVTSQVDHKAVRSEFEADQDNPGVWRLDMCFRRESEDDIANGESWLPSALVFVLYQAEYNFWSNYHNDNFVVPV
Protocol: FIGS. 5A-C show graphs and images illustrating expression and thermal shift of various domains of the Cm-GWD. (A) is an image showing the expression of the Cm-GWD DUF domain constructs with varying N- and C-termini. (B) is an image showing the expression of individual N-terminal domains of Cm-GWD.
To characterize the enzymes' structure, the architecture of the dikinases was first analyzed. The sequences of the dikinases were analyzed using bioinformatic tools. The dikinase primary sequences from multiple species were analyzed to predict sequence conservation, secondary structure, regions of disorder, and regions of hydrophobicity in order to define the optimal constructs for recombinant protein expression of Cm-GWD. At-GWD and PWD have been reported to have cTP, one or two CBM domains, and a dikinase domain (FIG. 4). […]
The binding of purified proteins to oligosaccharides was measured using a differential scanning fluorimetry (DSF)-based thermal shift assay. […] As a proof of principle, the binding of the Cm-GWD DUF to the oligosaccharide maltohexaose and to maltose was measured, as a negative control. […] The change in Tm was monitored with increasing concentration of oligosaccharide (FIG. 5C). […]

[3] = glucose release from native starch treated with combinations of amylases, dikinase and phosphatase; type: biochemical, Arabidopsis
Protocol: FIG. 7 includes a plot showing the glucose released for native Arabidopsis starch that was incubated at 25° C. for 60 minutes with combinations of amylases (BAM+ISA), dikinase (At-GWD), or phosphatase (At-SEX4), undigested starch was pelleted with a high-speed spin, the supernatant sugars were hydrolyzed via acid hydrolysis and glucose content was measured.
To observe how GWDs can be utilized to enhance starch utilization, native Arabidopsis starch was first treated with combinations of BAM3, ISA3, St-GWD, and At-SEX4. a high-speed spin was performed to remove the undigested starch, any remaining oligo-saccharides were hydrolyzed, and glucose released into the supernatant was measured (FIG. 7). Glucose was only released upon addition of amylases.
Native Arabidopsis starch was treated with combinations of BAM3, ISA3, StGWD, and AtSEX4, performed a high-speed spin to remove the undigested starch, hydrolyzed any remaining oligo-saccharides, and measured glucose released into the supernatant (FIG. 7). Glucose was only released upon addition of amylases, as expected.

Molecule: Cm-GWD: full length Cyanidioschyzon merolae glucan, water dikinase, amino acids 1-1572
activity compared with At-GWD and At-PWD ([1]; FIG. 2): between that of At-GWD and At-PWD
ability to phosphorylate starch (specific activity) [1]: robust specific activity

Molecule: NcCBM20-AtPWD: CBM20 of Neurospora crassa NCU08746 fused N-terminally to the dikinase domain of PWD
phosphorylation of starch by chimeric CBM-dikinase ([1]; phosphate-less Arabidopsis (sex1-3) starch or potato starch, FIG. 11A): robustly phosphorylated starch
priming of starch for phosphorylation by wild-type AtPWD ([1]; sex1-3 starch pretreated with the enzyme, FIG. 11B): served to prime wild-type AtPWD; also recorded: to a greater extent than starch pretreated with wild-type StGWD

B1: truncated Cm-GWD construct (residues 511-1572): truncated Cm-GWD encoding the second predicted CBM and catalytic dikinase domain (protein)
chain: MTILGLERRSLDDDGETVICFSVEEDGFALRVHADLSPLVIHWGIARHRVTEFLQPDESLAVETKGRTYRFENKAMRTEFVPDEHHQGTYYAEIHLKKEHAPRAVTFVLFNPELNRWYRAEGGGNFVLRMDLESFSQLPGSVGKHEDVAQKIIEVEVEYGSWTLMHRYNLANDILRNSMSALDADLLQIVFVWLRYSFLRQLDWQRSYNTQPRLLAHAQEQLTTTLAQVFVSRPDLRLWVRLCLSMLGRGGGNGQRIRDDILRIMHKHHIPETPGHFMEQWHQKLHNNTTPDDVAICESYLAFLRSNGDKNVFYETLQKHGVTKERLASYERPIFAEVQTYPCDTNSLIHDFEEYLHVLKSVHSGTDLAVVLDYARWTLDQELISKVEHIQSVRAELMASPQGALEFSFLIAEARKMLQSTLEHVEDPTRVRDMLFLDLALDELARLAVESQGLADYVAETDVQKACNLLVVLAQHVGWSMLSSAFLETSYDLAALVYGIQSDVQLQEPDFGLRLYATMERLMDCVGHDVVERLHHDVQPKAVYIGVGCNIDQKVVTLFSEELIRGQAAFALAQVLRPLMRNIRKQANLGNWQVISPGSCTGQGAVFDELLSIQYKTFAEPTVAFVRRISGEEEIPTGMVGLITTDTLDILSHCAVRARNEHVVLACCFSEELFDQLTERFRGAWVAVRSLTDGSLDFQPIQEGAGRTTAADTTDGASEHAQRRAVSMRSDIEKKPVKSVLGIAQFNTQRGGSKSNSLAKLIRVIPDWIHIPPCALLPFGVCEQVLAEAQNSDVGERFQQLMAELDGKGPTDDCSALLARLRHCVRQLAPSDTFMKELQQVLQHEGFHSIDNLDMRRAWECILDVWASKFNDRAFLALRKAGAVGKTSLSSLYMAVLVQEVVPADYAFVLHTKNPFTGEPSEIYGELVHGLGEVLVGNYPGRALGFTYSKSTGQVRVCNYPSKTKALIPRGGLIFRSDSNGEDLEDFAGAGLFDSILMQPAEEVVVRYRELKILQDKAYLERILSKIGKCGIEIESNCGNKPQDIEGCICGEDVYVVQSRDQV
modifications: Fragment of Cyanidioschyzon merolae GWD polypeptide
notes: truncated Cm-GWD encoding the second predicted CBM and catalytic dikinase domain
ability to phosphorylate starch (specific activity) [1]: active glucan dikinase

B2: Cm-GWD H1162A: active site mutant (H1162A) of Cm-GWD 511C fragment (protein)
chain: B1 chain with H653A
modifications: Fragment of Cyanidioschyzon merolae GWD polypeptide
ability to phosphorylate starch (specific activity) [1]: lacked activity

More lines, main results first:

stabilization (change in Tm) ([2]; increasing concentration of oligosaccharide, negative control): No stabilization
Molecule: OC[C@H]1O[C@H](O[C@H]2[C@H](O)[C@@H](O)C(O)O[C@@H]2CO)[C@H](O)[C@@H](O)[C@@H]1O (some centres unmarked) [maltose]

Kd ([2]; change in Tm with increasing concentration of oligosaccharide, apparent dissociation constant): 7 mM
Molecule: OC[C@H]1O[C@H](O[C@H]2[C@H](O)[C@@H](O)[C@@H](O[C@H]3[C@H](O)[C@@H](O)[C@@H](O[C@H]4[C@H](O)[C@@H](O)[C@@H](O[C@H]5[C@H](O)[C@@H](O)[C@@H](O[C@H]6[C@H](O)[C@@H](O)C(O)O[C@@H]6CO)O[C@@H]5CO)O[C@@H]4CO)O[C@@H]3CO)O[C@@H]2CO)[C@H](O)[C@@H](O)[C@@H]1O (some centres unmarked) [maltohexaose]

effect on glucose release when used with AtGWD ([3]; amylases plus AtGWD plus SEX4 (full starch phosphorylation cycle)): more than doubling
effect on glucose release when used with St-GWD ([3]; amylases plus St-GWD plus SEX4 (full starch phosphorylation cycle)): more than doubling
B3: SEX4: Arabidopsis glucan phosphatase Starch EXcess4 (protein, UniProt Q9FEB5 55-379, looked up)
Phosphoglucan phosphatase …: SESKSSSEMSGVAKDEEKSDEYSQDMTQAMGAVLTYRHELGMNYNFIRPDLIVGSCLQTPEDVDKLRKIGVKTIFCLQQDPDLEYFGVDISSIQAYAKKYSDIQHIRCEIRDFDAFDLRMRLPAVVGTLYKAVKRNGGVTYVHCTAGMGRAPAVALTYMFWVQGYKLMEAHKLLMSKRSCFPKLDAIRNATIDILTGLKRKTVTLTLKDKGFSRVEISGLDIGWGQRIPLTLDKGTGFWILKRELPEGQFEYKYIIDGEWTHNEAEPFIGPNKDGHTNNYAKVVDDPTSVDGTTRERLSSEDPELLEEERSKLIQFLETCSEAEV
effect on glucose release when added to amylases ([3]; BAM3, ISA3, 25° C., 60 minutes, FIG. 7): did not enhance glucose release on its own
